Source: paper PMC12113857

Tested on: T1, MprA(D51E) D51E (Corynebacterium glutamicum ATCC 13032), ORF:c49de587
T1 sequence: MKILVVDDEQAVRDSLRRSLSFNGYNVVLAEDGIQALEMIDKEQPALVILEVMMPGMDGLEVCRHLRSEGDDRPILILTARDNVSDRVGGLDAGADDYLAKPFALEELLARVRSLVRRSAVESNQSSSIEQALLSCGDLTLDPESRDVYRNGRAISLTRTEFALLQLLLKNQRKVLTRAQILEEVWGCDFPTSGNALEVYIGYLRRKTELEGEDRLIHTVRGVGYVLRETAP
Test: EMSA
Settings: Buffer P: 50 mM Tris-HCl pH 7.5, 50 mM KCl, 10 mM MgCl2, 0.5 mM EDTA, 10% glycerol; 30 min at 20 C; DNA 25-107 nM, protein 0-64-fold molar excess; 6% native …

Sequence: CGATACCCTTTTCGTCTTCCAGTCCGTGACAGACTTCCTCCCAATTAAGACGTCCACGCGTTGGAACATATTTCACTTATGCTAACACCTCTTAAGCATAAAGAAGCCAGTTACCTCCTCATTTTAAGAGAAGATAACTGGCTCTTGTTAAATTCTTACCTACAAAAGGTTGTAGGCGATGAATTTAAGGTTTAGAACTGCTCTACGTCCACGAGACCGAGCTGTGCTGCCTTAACCAGACGGCGTGGGATGCGAACGGTCTGACCGTCGATCTTGACCTCCTGAAGGGCGACATTGTCG (double strand) [mprA promoter]
- binding: binds
